{"source": "paper PMC12439599", "about": "(RNA (New York, N.Y.), 2025)", "molecules": {"B1": {"name": "human eIF5-CTD (residues 232–431) (domain or fragment, UniProt P55010 232-431, looked up)", "chain": "LERTIEERVNILFDFVKKKKEEGVIDSSDKEIVAEAERLDVKAMGPLVLTEVLFNEKIREQIKKYRRHFLRFCHNNKKAQRYLLHGLECVVAMHQAQLISKIPHILKEMYDADLLEEEVIISWSEKASKKYVSKELAKEIRVKAEPFIKWLKEAEEESSGGEEEDEDENIEVVYSKAASVPKVETVKSDNKDDDIDIDAI"}, "B2": {"name": "human eIF2Bε-CTD phosphomimetic mutant (eIF2Bε-CTD-EE) (domain or fragment)", "chain": "GSPQMDDIKVFQNEVLGTLQRGKEENISCDNLVLEINSLKYAYNISLKEVMQVLSHVVLEFPLQQMDSPLDSSRYCALLLPLLKAWSPVFRNYIKRAADHLEALAAIEDFFLEHEALGISMAKVLMAFYQLEILAEETILSWFSQRDTTDKGQQLRKNQQLQRFIQWLKEAEEEEEEDD"}, "B3": {"name": "human eIF2Bε-CTD (domain or fragment, UniProt Q13144 543-721, looked up)", "chain": "GSPQMDDIKVFQNEVLGTLQRGKEENISCDNLVLEINSLKYAYNISLKEVMQVLSHVVLEFPLQQMDSPLDSSRYCALLLPLLKAWSPVFRNYIKRAADHLEALAAIEDFFLEHEALGISMAKVLMAFYQLEILAEETILSWFSQRDTTDKGQQLRKNQQLQRFIQWLKEAEEESSEDD"}, "B4": {"name": "human 5MP1-CTD (domain or fragment, UniProt Q9Y6E2 248-419, looked up)", "chain": "VQQSLGTRKELQKELQERLSQECPIKEVVLYVKEEMKRNDLPETAVIGLLWTCIMNAVEWNKKEELVAEQALKHLKQYAPLLAVFSSQGQSELILLQKVQEYCYDNIHFMKAFQKIVVLFYKADVLSEEAILKWYKEAHVAKGKSVFLDQMKKFVEWLQNAEEESESEGEEN"}, "B5": {"name": "human 5MP1-CTD phosphomimetic mutant (5MP1-CTD-EE) (domain or fragment)", "chain": "VQQSLGTRKELQKELQERLSQECPIKEVVLYVKEEMKRNDLPETAVIGLLWTCIMNAVEWNKKEELVAEQALKHLKQYAPLLAVFSSQGQSELILLQKVQEYCYDNIHFMKAFQKIVVLFYKADVLSEEAILKWYKEAHVAKGKSVFLDQMKKFVEWLQNAEEEEEEEGEEN"}, "B6": {"name": "human eIF2β-NTT (residues 1–191), His6-tagged (domain or fragment)", "chain": "MSGDEMIFDPTMSKKKKKKKKPFMLDEEGDTQTEETQPSETKEVEPEPTEDKDLEADEEDTRKKDASDDLDDLNFFNQKKKKKKTKKIFDIDEAEEGVKDLKIESDVQEPTEPEDDLDIMLGNKKKKKKNVKFPDEDEILEKDEALEDEDNKKDDGISFSNQTGPAWAGSERDYTYEELLNRVFNIMREKN"}, "B7": {"name": "human eIF2β-K3 (K-box 3 with surrounding segments) (domain or fragment, UniProt P20042 106-173, looked up)", "chain": "DVQEPTEPEDDLDIMLGNKKKKKKNVKFPDEDEILEKDEALEDEDNKKDDGISFSNQTGPAWAGSERD"}}, "key": {"[1]": {"target": "human eIF5-CTD phosphomimetic mutant (eIF5-CTD-EE) (human) (UniProt P55010)", "assay": "NMR titration"}, "[2]": {"target": "B7", "assay": "ITC"}, "[3]": {"target": "B6", "assay": "ITC"}, "[4]": {"target": "B5", "assay": "NMR titration"}, "[5]": {"target": "B1", "assay": "NMR titration"}, "[6]": {"target": "B4", "assay": "NMR titration"}, "[7]": {"target": "B2", "assay": "NMR titration"}, "[8]": {"target": "B3", "assay": "NMR titration"}, "[9]": {"target": "T1, S. cerevisiae eIF5-CTD, eIF5 residues 201–405 (S. cerevisiae, UniProt P38431 201-405)", "T1 sequence": "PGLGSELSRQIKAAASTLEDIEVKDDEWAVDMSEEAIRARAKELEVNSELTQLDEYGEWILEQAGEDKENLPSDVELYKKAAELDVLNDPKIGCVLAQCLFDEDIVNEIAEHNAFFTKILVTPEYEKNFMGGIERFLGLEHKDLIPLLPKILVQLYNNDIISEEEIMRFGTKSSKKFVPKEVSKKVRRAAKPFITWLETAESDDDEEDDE", "assay": "crystal structure"}, "[10]": {"target": "B7", "assay": "NMR titration"}, "[11]": {"target": "B6", "assay": "NMR titration"}, "[12]": {"target": "B1", "assay": "NMR titration", "remark": "listed apart in the source"}, "[13]": {"target": "B1", "assay": "ITC"}}, "data": [{"molecule": "human eIF2β-NTT (residues 1–191), His6-tagged (from UniProt P20042 1-191) (domain or fragment)", "values": [{"measurement": "Kd", "setting": "[1]", "result": 2.3, "unit": "µM"}]}, {"molecule": "human eIF2β-K1 (K-box 1 with surrounding segments) (from UniProt P20042 1-45) (domain or fragment)", "values": [{"measurement": "Kd", "setting": "[1]", "result": 0.2, "unit": "µM"}]}, {"molecule": "human eIF2β-K3 (K-box 3 with surrounding segments) (from UniProt P20042 106-173) (domain or fragment)", "values": [{"measurement": "Kd", "setting": "[1]", "result": 0.3, "unit": "µM"}]}, {"molecule": "B1", "values": [{"measurement": "stoichiometry N", "setting": "[2]", "result": 1}, {"measurement": "stoichiometry N", "setting": "[3]", "result": 3.46}]}, {"molecule": "MSGDEMIFDPTMSKKKKKKKKPFMLDEEGDTQTEETQPSETKEVE (domain or fragment, UniProt P20042 1-45, looked up)", "note": "[human eIF2β-K1 (K-box 1 with surrounding segments)]", "values": [{"measurement": "Kd", "setting": "[4]", "result": "11 ± 3", "unit": "µM"}, {"measurement": "Kd", "setting": "[5]", "result": "3 ± 1", "unit": "µM"}, {"measurement": "Kd", "setting": "[6]", "result": "20 ± 7", "unit": "µM"}, {"measurement": "Kd", "setting": "[7]", "result": "4 ± 1", "unit": "µM"}, {"measurement": "Kd", "setting": "[8]", "result": "8 ± 1", "unit": "µM"}]}, {"molecule": "S. cerevisiae eIF2β residues 39–106 (K-boxes 2 and 3 with flanking regions) (domain or fragment, UniProt P09064 39-106, looked up) GSGDDLFAGLKKKKKKSKSVSADAEAEKEPTDDIAEALGELSLKKKKKKTKDSSVDAFEKELAKAGLD", "values": [{"measurement": "binding result", "setting": "[9]", "result": "binds"}]}, {"molecule": "B2", "values": [{"measurement": "Kd", "setting": "[10]", "result": "14 ± 1", "unit": "µM"}, {"measurement": "Kd", "setting": "[11]", "result": "14 ± 4", "unit": "µM"}]}, {"molecule": "B3", "values": [{"measurement": "Kd", "setting": "[11]", "result": "44 ± 3", "unit": "µM"}]}, {"molecule": "B4", "values": [{"measurement": "Kd", "setting": "[11]", "result": "63 ± 5", "unit": "µM"}]}, {"molecule": "B5", "values": [{"measurement": "Kd", "setting": "[10]", "result": "23 ± 3", "unit": "µM"}, {"measurement": "Kd", "setting": "[11]", "result": "45 ± 6", "unit": "µM"}]}, {"molecule": "B6", "values": [{"measurement": "Kd", "setting": "[12]", "result": "37 ± 6", "unit": "µM"}, {"measurement": "Kd", "setting": "[13]", "result": 33, "unit": "µM"}]}, {"molecule": "DTRKKDASDDLDDLNFFNQKKKKKKTKKIFDIDEAEEGVKDLKIES (domain or fragment, UniProt P20042 60-105, looked up)", "note": "[human eIF2β-K2 (K-box 2 with surrounding segments)]", "values": [{"measurement": "Kd", "setting": "[4]", "result": "5.6 ± 0.9", "unit": "µM"}, {"measurement": "Kd", "setting": "[5]", "result": "6 ± 1", "unit": "µM"}, {"measurement": "Kd", "setting": "[6]", "result": "18 ± 3", "unit": "µM"}, {"measurement": "Kd", "setting": "[7]", "result": "2.3 ± 0.5", "unit": "µM"}, {"measurement": "Kd", "setting": "[8]", "result": "9 ± 3", "unit": "µM"}]}, {"molecule": "B7", "values": [{"measurement": "Kd", "setting": "[5]", "result": "4 ± 1", "unit": "µM"}, {"measurement": "Kd", "setting": "[6]", "result": "37 ± 5", "unit": "µM"}, {"measurement": "Kd", "setting": "[8]", "result": "24 ± 3", "unit": "µM"}, {"measurement": "Kd", "setting": "[13]", "result": 4.7, "unit": "µM"}]}]}
